Reference: US20190065668A1, “STRUCTURE OF […] IN COMPLEX WITH AN INHIBITOR AND USES THEREOF” (priority 2015, published 2019)

Experiments:
[1] = target: recombinant P. vivax plasmepsin V (residues R35-R476), N-terminal fusion tag removed with TEV protease (Plasmodium vivax) (UniProt A5K302); test: cell-based or functional assay
[2] = target: recombinant P. vivax plasmepsin V (residues R35-R476), N-terminal fusion tag removed with TEV protease (Plasmodium vivax) (UniProt A5K302); test: SPR, Biacore 4000, plasmepsin V amine-coupled on a CM5 chip
[3] = target: recombinant P. vivax plasmepsin V (residues R35-R476), N-terminal fusion tag removed with TEV protease (Plasmodium vivax) (UniProt A5K302); test: SPR, Biacore 4000, plasmepsin V amine-coupled on a CM5 chip, 1:1 fit
[4] = target: recombinant P. vivax plasmepsin V (residues R35-R476), N-terminal fusion tag removed with TEV protease (Plasmodium vivax) (UniProt A5K302); test: SPR, Biacore 4000, plasmepsin V amine-coupled on a CM5 chip, compound as analyte, 1:1 fit, 25 °C
[5] = target: recombinant P. falciparum plasmepsin V (residues N80-R528) (Plasmodium falciparum) (UniProt Q8I6Z5); test: cell-based or functional assay
Chain of recombinant P. falciparum plasmepsin V (residues N80-R528) (Plasmodium falciparum) (Q8I6Z5 80-528): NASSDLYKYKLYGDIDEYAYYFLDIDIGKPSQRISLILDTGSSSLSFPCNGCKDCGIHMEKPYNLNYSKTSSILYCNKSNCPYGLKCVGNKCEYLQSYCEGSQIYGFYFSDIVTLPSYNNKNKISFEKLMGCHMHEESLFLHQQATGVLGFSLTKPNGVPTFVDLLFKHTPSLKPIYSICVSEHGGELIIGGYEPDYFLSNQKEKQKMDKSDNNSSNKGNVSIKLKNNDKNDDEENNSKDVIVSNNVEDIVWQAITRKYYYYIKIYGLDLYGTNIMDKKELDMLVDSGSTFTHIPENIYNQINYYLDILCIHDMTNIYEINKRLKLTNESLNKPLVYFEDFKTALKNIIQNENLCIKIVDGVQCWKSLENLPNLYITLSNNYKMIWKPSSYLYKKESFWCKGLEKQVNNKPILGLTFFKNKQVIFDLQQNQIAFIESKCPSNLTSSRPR

Chain of recombinant P. vivax plasmepsin V (residues R35-R476), N-terminal fusion tag removed with TEV protease (Plasmodium vivax) (A5K302 35-476, tags or fused parts left off): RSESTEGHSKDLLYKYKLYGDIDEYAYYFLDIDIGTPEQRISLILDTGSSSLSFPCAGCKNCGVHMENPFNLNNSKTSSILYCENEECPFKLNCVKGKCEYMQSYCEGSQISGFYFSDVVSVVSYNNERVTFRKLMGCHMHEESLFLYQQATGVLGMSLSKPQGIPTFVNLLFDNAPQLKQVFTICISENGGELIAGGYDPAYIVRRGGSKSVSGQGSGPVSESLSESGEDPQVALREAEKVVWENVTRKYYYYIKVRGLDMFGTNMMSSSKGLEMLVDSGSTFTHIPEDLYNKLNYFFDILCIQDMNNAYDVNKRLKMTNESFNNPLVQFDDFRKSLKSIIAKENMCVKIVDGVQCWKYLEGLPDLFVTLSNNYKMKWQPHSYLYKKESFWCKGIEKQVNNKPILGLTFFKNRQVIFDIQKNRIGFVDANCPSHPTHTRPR

Substance	IC50, inhibition of cleavage of the fluorogenic KAHRP PEXEL peptide [1]	fold affinity against WEHI-916 [2]	koff [3]	Kd [4]	IC50, inhibition of cleavage of the fluorogenic KAHRP PEXEL peptide [5]
WEHI-842, Cbz-Cav(NH2)-Val-Sta-NH(CH2)2Ph.TFA (peptide)	1.6 nM	> 2 fold	0.00111 s⁻¹	13.4 nM	
WEHI-916 (peptide)	8.2 nM		0.00247 s⁻¹	42 nM	12.9 nM
